Data from patent publication US20130096058A1 (AstraZeneca / MedImmune, published 2013).

How the values were obtained:
cyno TRAIL R2-Fc [1] = molecular target: T1, cyno TRAIL R2-Fc (cynomolgus monkey (Macaca fascicularis)); assay: competition ELISA: plate coated with F4 mod 1, 0.75 nM cyno TRAIL R2-Fc, purified monomer titrated as competitor
T1 construct: The text prints 'cyno TRAIL R2' and 'cyno TRAIL R2-Fc' for the same ELISAs; also called cynomolgus TRAIL R2

cyno TRAIL R2-Fc [2] = molecular target: T1, cyno TRAIL R2-Fc; assay: competition ELISA: F4 mod 1 coated, cyno TRAIL R2-Fc
cyno TRAIL R2-Fc [3] = molecular target: T1, cyno TRAIL R2-Fc; assay: competition ELISA: plate coated with F4 mod 1, cyno TRAIL R2-Fc, monomer titrated as competitor
[4] = molecular target: endogenous TRAIL R2 expressed on the cell surface (human, UniProt O14763 56-440); assay: cell-based or functional assay

B1: F4 mod 1 (designed binder)
chain: AIEVKDVTDTTALITWAKPWVDPPPLWGCELAYGIKDVPGDRTTIGLQQKHTAYSIGNLKPDTEYEVSLICFDPYGLKSRPAKETFTTGGGTLGHHHHHHHH
notes: F4 with a D to G mutation two amino acids before the DE loop
For B1, the IC50 (cyno TRAIL R2-Fc [1]) was 34 nM, the “fold difference in binding between F4 mod 1 and F4 mod 12” value (cyno TRAIL R2-Fc [2]) was at most 2 fold and the IC50 (cyno TRAIL R2-Fc [3]) was 34 nM.

B2: A3 (1E11) (designed binder)
chain: SGGGGSAIEVKDVTDTTALITWAKPWVDPPPLWGCELAYGIKDVPGDRTTIDLQQKHTAYSIGNLKPDTEYEVSLICFDPYGAKSNPAKETFTTGGGGSGGGGSGGGGSAIEVKDVTDTTALITWAKPWVDPPPLWGCELAYGIKDVPGDRTTIDLQQKHTAYSIGNLKPDTEYEVSLICFDPYGAKSNPAKETFTTGGGGSGGGGSGGGGSAIEVKDVTDTTALITWAKPWVDPPPLWGCELAYGIKDVPGDRTTIDLQQKHTAYSIGNLKPDTEYEVSLICFDPYGAKSNPAKETFTTGGGGSGGGGSGGGGSAIEVKDVTDTTALITWAKPWVDPPPLWGCELAYGIKDVPGDRTTIDLQQKHTAYSIGNLKPDTEYEVSLICFDPYGAKSNPAKETFTTGGGGSGGGGSGTLGHHHHHHHH
B2 was tested, and the “Maximum Inhibition % (H2122)” value [4] was 91%.

B3: F4 mod 12 (designed binder)
chain: SQIEVKDVTDTTALITWAKPWVDPPPLWGCELTYGIKDVPGDRTTIGLQQKHNQYSIGNLKPDTEYEVSLICFDPYGLKSRPAKETFTTGLGTLGHHHHHHHH
notes: Germline-engineered F4 mod 1
With B3 the “fold difference in binding between F4 mod 1 and F4 mod 12” value (cyno TRAIL R2-Fc [2]) was at most 2 fold and the IC50 (cyno TRAIL R2-Fc [3]) was 50 nM.
